Experiment [1] has as its target T1, human factor IX (human, UniProt P00740 47-461, 12 glutamic acid residues of the GLA domain are post-translationally γ-carboxylated).
T1 construct: Zymogen used as analyte in SPR, reconstituted at 1 mg/ml; also called FIX; Human FIX (MW ~55 KDa)
Nature of the experiment: SPR as in Example 10, human FIX as analyte. Here is the method:
(§1) Monospecific antibodies (referred as ligand) which had been purified on Protein A were captured onto the anti-human IgG Fc CM4 surface at approximately 2 μg/ml. The ligands were injected for 60 seconds at 10 μl/min in all the active channels of all 8 flow channels. The run was performed at 25° C. using neutral pH HBS-P 1X+CaCl₂ 2.5 mM as running buffer.
(§2) Human FIX (MW ˜55 KDa) or human FX (MW ˜58 KDa) was reconstituted at 1 mg/ml in the running buffer and used as analyte. The analyte was injected in multiple cycle kinetics (MCK) mode at 3 concentrations (1.5 μM, 500 nM and 166.7 nM) with 120 seconds association phase and 200 seconds (for FIX) or 300 seconds (for FX) dissociation phase, at flow rate […] in both active and reference channels. Three injections of 10 mM Glycine pH 1.5 for 60 sec. at 10 μl/min were used for the regeneration phase.
(§3) Affinity and kinetics of purified anti-FIX and anti-FX antibodies for binding to their respective antigens was determined by SPR as described in Example 10 above.

The target in experiment [2] is T1, human factor IX. Nature of the experiment: SPR, IgG captured on anti-human IgG Fc, human FIX as analyte. Here is the method:
(§4) SPR was used to determine the binding affinity (KD) to FIX or FX respectively, the kinetic constants on-rate (kₒₙ) and off-rate (koff). Analyses was performed using a Biacore 8K (GE Healthcare) system.
as §1, §2

Experiment [3] concerns the target T2, human factor X (human, UniProt P00742 41-179; P00742 183-488).
T2 construct: Zymogen used as analyte in SPR; also called FX; Human FX (MW ~58 KDa)
Nature of the experiment: SPR, IgG captured on anti-human IgG Fc, human FX as analyte. Here is the method: as §4, §1, §2
For orientation: SPR reads the build-up and loss of mass on a sensor chip optically.

Experiment [4] concerns the target T2, human factor X. Nature of the experiment: SPR as in Example 10, human FX as analyte. Here is the method:
as §1, §2, §3

Experiment [5] has as its target T2, human factor X. Nature of the experiment: SPR as in Example 10, human FX as analyte. The source holds these as a separate data set.

Where a chain is given by its changes, count along the chain named.

Our source for the Kd, koff and kon values is patent publication US20220064327A1 (KYMAB, published 2022).

T1 sequence (P00740 47-461 limits assumed): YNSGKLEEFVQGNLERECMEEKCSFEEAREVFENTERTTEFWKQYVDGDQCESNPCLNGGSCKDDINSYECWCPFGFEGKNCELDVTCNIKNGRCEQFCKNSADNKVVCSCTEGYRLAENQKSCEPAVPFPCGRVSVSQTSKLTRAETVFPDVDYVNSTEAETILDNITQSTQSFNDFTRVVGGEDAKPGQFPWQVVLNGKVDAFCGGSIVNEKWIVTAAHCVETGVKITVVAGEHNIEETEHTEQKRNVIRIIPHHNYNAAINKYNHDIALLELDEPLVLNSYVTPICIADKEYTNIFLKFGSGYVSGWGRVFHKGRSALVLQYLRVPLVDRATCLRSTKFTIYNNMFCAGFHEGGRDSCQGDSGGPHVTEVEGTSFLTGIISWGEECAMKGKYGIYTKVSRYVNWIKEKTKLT
T2 sequence (P00742 41-179, chain 1 of 2): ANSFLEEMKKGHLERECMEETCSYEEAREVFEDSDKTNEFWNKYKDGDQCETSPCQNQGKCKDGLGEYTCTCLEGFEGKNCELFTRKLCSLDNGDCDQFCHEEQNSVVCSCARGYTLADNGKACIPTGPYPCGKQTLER
T2 sequence (P00742 183-488, chain 2 of 2): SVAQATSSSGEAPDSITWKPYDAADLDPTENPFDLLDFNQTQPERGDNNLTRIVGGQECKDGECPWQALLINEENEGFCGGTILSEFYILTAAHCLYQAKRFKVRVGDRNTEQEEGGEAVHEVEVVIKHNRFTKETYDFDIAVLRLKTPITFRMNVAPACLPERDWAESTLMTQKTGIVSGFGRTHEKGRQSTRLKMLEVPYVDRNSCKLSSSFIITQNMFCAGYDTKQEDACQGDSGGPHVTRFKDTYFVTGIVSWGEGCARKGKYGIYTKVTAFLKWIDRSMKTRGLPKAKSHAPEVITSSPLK

B1: NINA-0128 (antibody, V domains shown)
VH: EVQLVESGGGFVQPGGSLRLSCAVSGFTFNSYWMSWVRQAPGKGLEWVANINQDGSEKFYVASVKGRFTMSRDNAKKSVYVQMNSLRAEDTAVYYCAREGYSSSSYYGMDVWGQGTTVTVSS
VL: SYVLTQPPSVSVAPGETARITCGGDNIGRKSVYWYQQKSGQAPVLVIYYDSDRPSGIPERFSGSNSGNTATLTISRVEAGDEADYYCQVWDGSSDHWVFGGGTKLTVL
One may read the Kd as the free concentration of one partner at which half of the binding sites on the other are occupied at equilibrium, for simple one-to-one binding. Low readings indicate higher affinity, high ones lower affinity. By koff is commonly meant the rate constant with which the complex falls apart. The low end stands for slow dissociation, the high end for fast dissociation. As a reminder, the kon is the rate constant with which the complex forms. In experiment [1], B1 had an equilibrium dissociation constant (Kd) of 359 nM, a koff of 0.0492 s⁻¹ and a kon of 137000 M⁻¹ s⁻¹. In experiment [2], the Kd amounted to 198 nM, the koff turned out to be 0.0576 s⁻¹ and the kon came to 292000 M⁻¹ s⁻¹.

B2: TINA-0215.0128 (antibody, V domains shown)
VH: QVQLVQSGAEVKKPGASVKVSCKASRYSFTSYYMHWVRQAPGQGLEWMGIINPKSGSTSYAQKFQGRVTMTRDTSTSTVYMELSSLRSEDTAVYYCARDGYGSSSRCLQLWGQGTLVTVSS
VL: B1 VL
notes: Monospecific IgG4PE
In experiment [3], B2 returned a dissociation constant Kd of 1150 nM, a dissociation rate constant (koff) of 0.0787 s⁻¹ and a kon of 68400 M⁻¹ s⁻¹.

B3: TINA-0616.0128 (antibody, V domains shown)
VH: B2 VH with V5I, L108I
VL: B1 VL
notes: Monospecific IgG; position is IMGT numbering, not a count on the entry
For the molecule B3, in experiment [4], the affinity, expressed as Kd, was 530 nM; the koff is 0.0222 s⁻¹; the kon turned out to be 41900 M⁻¹ s⁻¹.

B4: TINA-0201.0128 (antibody, V domains shown)
VH: B2 VH with V5I
VL: B1 VL
notes: Monospecific IgG4PE
As for B4, in experiment [4], the Kd amounted to 816 nM, the koff is 0.0482 s⁻¹ and the kon was 59000 M⁻¹ s⁻¹. In experiment [3], binding was put at a Kd of 579 nM, the koff was 0.0502 s⁻¹ and the on-rate (kon) was found to be 86700 M⁻¹ s⁻¹.

B5: NINA-0442.0128 (antibody, V domains shown)
VH: B1 VH with S104Q
VL: B1 VL
In experiment [2], B5 had a dissociation constant (Kd) of 242 nM, a koff of 0.0471 s⁻¹ and an association rate constant (kon) of 194000 M⁻¹ s⁻¹.

B6: TINA-0214.0128 (antibody, V domains shown)
VH: B2 VH with P14T, K23Q
VL: B1 VL
notes: Monospecific IgG4PE
In experiment [3], B6 returned a dissociation constant (Kd) of 466 nM, a koff of 0.0558 s⁻¹ and an association rate constant (kon) of 120000 M⁻¹ s⁻¹.

B7: NINA-0456.0128 (antibody, V domains shown)
VH: B1 VH with S105L
VL: B1 VL
In experiment [2], B7 showed a dissociation constant Kd of 263 nM, an off-rate (koff) of 0.0396 s⁻¹ and a kon of 151000 M⁻¹ s⁻¹.

B8: TINA-0211.0128 (antibody, V domains shown)
VH: B2 VH with E82D
VL: B1 VL
notes: Monospecific IgG4PE
Turning to B8, in experiment [3], the affinity, expressed as Kd, was 680 nM; the off-rate constant (koff) was 0.0447 s⁻¹; the kon stood at 65700 M⁻¹ s⁻¹.

B9: TINA-0210.0128 (antibody, V domains shown)
VH: B2 VH with S84N
VL: B1 VL
notes: Monospecific IgG4PE
Consider B9, for which, in experiment [3], the Kd came to 974 nM, the koff stood at 0.0744 s⁻¹ and the on-rate constant (kon) was 76400 M⁻¹ s⁻¹.

B10: TINA-0666.0128 (antibody, V domains shown)
VH: B2 VH with V5I, C107I, L108I
VL: B1 VL
notes: Monospecific IgG
In experiment [4], B10 displayed a Kd of 927 nM, an off-rate (koff) of 0.0417 s⁻¹ and a kon of 44900 M⁻¹ s⁻¹.

B11: TINA-0204.0128 (antibody, V domains shown)
VH: B2 VH with K12Q, P14T
VL: B1 VL
notes: Monospecific IgG4PE
On to B11, for which, in experiment [3], the dissociation constant (Kd) was determined as 718 nM, the off-rate constant (koff) was found to be 0.0785 s⁻¹ and the kon turned out to be 109000 M⁻¹ s⁻¹.

B12: TINA-0207.0128 (antibody, V domains shown)
VH: B2 VH with P14T
VL: B1 VL
notes: Monospecific IgG4PE
In experiment [3], B12 had a Kd of 847 nM, a koff of 0.141 s⁻¹ and a kon of 166000 M⁻¹ s⁻¹.

B13: TINA-0203.0128 (antibody, V domains shown)
VH: B2 VH with S84I
VL: B1 VL
notes: Monospecific IgG4PE
For the molecule B13, in experiment [3], the Kd worked out at 880 nM, the koff amounted to 0.0598 s⁻¹ and the kon was determined as 68000 M⁻¹ s⁻¹.

B14: NINA-0436.0128 (antibody, V domains shown)
VH: B1 VH with S104I
VL: B1 VL
Consider B14, for which, in experiment [1], the Kd was determined as 359 nM, the koff amounted to 0.0523 s⁻¹ and the kon was 146000 M⁻¹ s⁻¹. For the same molecule, in experiment [2], the affinity, expressed as Kd, was 184 nM; the koff worked out at 0.0453 s⁻¹; the kon was 246000 M⁻¹ s⁻¹.

B15: NINA-1091.0128 (antibody, V domains shown)
VH: B1 VH with E57R, S103I
VL: B1 VL
In experiment [1], B15 showed a dissociation constant Kd of 218 nM, a dissociation rate constant (koff) of 0.0352 s⁻¹ and a kon of 161000 M⁻¹ s⁻¹.

B16: TINA-0638.0128 (antibody, V domains shown)
VH: B2 VH with V5I, Q109M
VL: B1 VL
notes: as for B3
Turning to B16, the dissociation constant (Kd) in experiment [5] fell in the range of 300 to 3000 nM. For the same molecule, in experiment [4], the Kd came out at 333 nM, the koff stood at 0.0232 s⁻¹ and the on-rate constant (kon) is 69900 M⁻¹ s⁻¹.

B17: NINA-0445.0128 (antibody, V domains shown)
VH: B1 VH with S104V
VL: B1 VL
In the case of B17, in experiment [2], the affinity, expressed as Kd, was 267 nM; the off-rate (koff) worked out at 0.0544 s⁻¹; the kon worked out at 204000 M⁻¹ s⁻¹.

B18: NINA-1172.0128 (antibody, V domains shown)
VH: B1 VH with E57R, S104I, S105K
VL: B1 VL
In the case of B18, in experiment [1], the Kd was 76.4 nM, the koff came to 0.0171 s⁻¹ and the on-rate (kon) worked out at 225000 M⁻¹ s⁻¹.

B19: NINA-0440.0128 (antibody, V domains shown)
VH: B1 VH with S104N
VL: B1 VL
For the molecule B19, in experiment [2], the affinity, expressed as Kd, was 289 nM; the koff came out at 0.0535 s⁻¹; the kon was 185000 M⁻¹ s⁻¹.

B20: NINA-0444.0128 (antibody, V domains shown)
VH: B1 VH with S104T
VL: B1 VL
In experiment [2], B20 showed a Kd of 206 nM, a koff of 0.0445 s⁻¹ and a kon of 216000 M⁻¹ s⁻¹.

B21: TINA-0202.0128 (antibody, V domains shown)
VH: B2 VH with V5I, K12Q
VL: B1 VL
notes: Monospecific IgG4PE
In experiment [4], B21 displayed a dissociation constant (Kd) of 1380 nM, a koff of 0.0709 s⁻¹ and a kon of 51300 M⁻¹ s⁻¹. In experiment [3], binding was put at a Kd of 812 nM, the koff was 0.072 s⁻¹ and the kon came out at 88700 M⁻¹ s⁻¹.

B22: TINA-0217.0128 (antibody, V domains shown)
VH: B2 VH with K12T
VL: B1 VL
notes: Monospecific IgG4PE
B22: in experiment [3], the dissociation constant (Kd) was determined as 564 nM, the koff turned out to be 0.0574 s⁻¹ and the association rate constant (kon) came out at 102000 M⁻¹ s⁻¹.

B23: TINA-0209.0128 (antibody, V domains shown)
VH: B2 VH with K12Q, M34L, S55T, S57D, S77T, S105A
VL: B1 VL
notes: Monospecific IgG4PE
In experiment [3], B23 showed a Kd of 1150 nM, a dissociation rate constant (koff) of 0.0679 s⁻¹ and an association rate constant (kon) of 59000 M⁻¹ s⁻¹.

B24: TINA-0206.0128 (antibody, V domains shown)
VH: B2 VH with S57D, E82D, S105A
VL: B1 VL
notes: Monospecific IgG4PE
For B24, in experiment [3], the Kd amounted to 992 nM, the dissociation rate constant (koff) came to 0.0667 s⁻¹ and the kon was determined as 67200 M⁻¹ s⁻¹.

B25: NINA-1280.0128 (antibody, V domains shown)
VH: B1 VH with T28R, E57R, S104I, S105K
VL: B1 VL
Take B25: in experiment [1], binding was put at a Kd of 52.3 nM, the koff worked out at 0.01 s⁻¹ and the kon was 192000 M⁻¹ s⁻¹.
